This note sets out measurements from patent US20030191054A1.

Test [1] addresses purified recombinant BAG-2 (SEQ ID NO:4) (human). Put plainly: surface plasmon resonance (BIAcore), KD=Kd/Ka. For orientation: Surface plasmon resonance follows binding to a sensor surface in real time, without labels.
In test [2] the target is purified recombinant BAG-3 (SEQ ID NO:6) (human). Put plainly: surface plasmon resonance (BIAcore), KD=Kd/Ka.
Test [3] addresses purified recombinant BAG-1 (beginning at residue 116 of SEQ ID NO:2) (human). Put plainly: surface plasmon resonance (BIAcore), KD=Kd/Ka.
The target of test [4] is purified recombinant BAG-2 (SEQ ID NO:4) (human). Put plainly: surface plasmon resonance (BIAcore), BAG protein immobilized.
Test [5] concerns the target purified recombinant BAG-3 (SEQ ID NO:6) (human). The test is described as above.
In test [6] the target is purified recombinant BAG-1 (beginning at residue 116 of SEQ ID NO:2) (human). The description is as above.

“Hsc70 in the soluble phase of the BIAcore assay”: the Kd (in general, a measure of binding affinity in units of concentration) in test [1] came out at 2.4 nM; in test [2] it was 7.4 nM; in test [3], 1.4 nM. In addition, the koff – broadly, the rate constant with which the complex falls apart – was determined as 0.0005 s⁻¹ in test [4], 0.0017 s⁻¹ in test [5] and 0.0003 s⁻¹ in test [6]. The values for the kon in test [4], in test [5] and in test [6] were 210000 M⁻¹ s⁻¹, 240000 M⁻¹ s⁻¹ and 210000 M⁻¹ s⁻¹, respectively.
